Assay results as given in article PMC12491506, “Identification of a RAB32-LRMDA-Commander membrane trafficking complex reveals the molecular mechanism of human oculocutaneous albinism type 7” (Nature Communications, 2025).

Target: T1, recombinant LRMDA (tag-less) (human, UniProt A0A087WWI0 1-226)
T1 construct: LRMDA, human, full-length, longer isoform (this isoform was used in all experiments); gene synthesised with codon optimisation for S. frugiperda; also called purified LRMDA; HaloTag-TEV-LRMDA after TEV cleavage; source: Sf21 insect cells (baculovirus), purified (HaloLink resin, TEV cleavage); not shown: HaloTag, N-terminal, cleaved
T1 sequence (looked up): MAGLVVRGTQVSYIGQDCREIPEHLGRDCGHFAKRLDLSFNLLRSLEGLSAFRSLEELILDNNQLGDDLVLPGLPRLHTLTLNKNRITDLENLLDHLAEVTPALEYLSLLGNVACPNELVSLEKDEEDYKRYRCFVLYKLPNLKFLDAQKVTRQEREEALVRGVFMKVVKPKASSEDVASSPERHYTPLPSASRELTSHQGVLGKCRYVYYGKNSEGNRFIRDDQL
Experiment: pull-down; 0.5 µM Retriever (His-tagged VPS29) on TALON resin with 1 µM LRMDA and 1 µM RAB32 together; 50 mM HEPES pH 7.2, 150 mM NaCl, 2 mM β-mercaptoethanol, 0.1% Triton X-100; 45 min at 4 °C; washes with 10 mM imidazole
Details: both partners purified

B1: recombinant RAB32 (tag-less) (natural protein, human, UniProt Q13637 1-225, looked up)
chain: MAGGGAGDPGLGAAAAPAPETREHLFKVLVIGELGVGKTSIIKRYVHQLFSQHYRATIGVDFALKVLNWDSRTLVRLQLWDIAGQERFGNMTRVYYKEAVGAFVVFDISRSSTFEAVLKWKSDLDSKVHLPNGSPIPAVLLANKCDQNKDSSQSPSQVDQFCKEHGFAGWFETSAKDNINIEEAARFLVEKILVNHQSFPNEENDVDKIKLDQETLRAENKSQCC
notes: RAB32, human, full-length; also called purified RAB32; GST-TEV-RAB32 after TEV cleavage; source: Sf21 insect cells (baculovirus), purified (Glutathione Sepharose 4b, TEV cleavage); not shown: GST, N-terminal, cleaved
- binding result: binds
